Results on 2 molecules are retold here after paper doi:10.1101/2021.10.06.463398, “Disruption of nucleoid expanded conformation by toxic aberrant proteins synthesized in Escherichia coli” (bioRxiv, 2021).

The star is where a group is joined. FITC = O=C1OC2(c3ccc(O)cc3Oc3cc(O)ccc32)c2ccc(NC(=S)*)cc21

The assay concerns the target T1, 6His-DnaK (E. coli molecular chaperone DnaK) (E. coli, UniProt P0A6Y8 1-638).
T1 construct: No tag removal is described; also called purified E. coli DnaK protein; source: E. coli, ASKA expression clone, purified (Ni-NTA agarose)
Nature of the assay: MST; 20 nM fluorescein-labelled peptide with varying concentrations of DnaK; MST buffer (50 mM Tris pH 7.4, 150 mM NaCl, 10 mM MgCl2, 0.05% Tween-20, 0.05% bovine serum albumin); 1 h at 20°C; Monolith NT.115. The conditions noted are these: both partners purified.

T1 sequence (P0A6Y8 whole entry): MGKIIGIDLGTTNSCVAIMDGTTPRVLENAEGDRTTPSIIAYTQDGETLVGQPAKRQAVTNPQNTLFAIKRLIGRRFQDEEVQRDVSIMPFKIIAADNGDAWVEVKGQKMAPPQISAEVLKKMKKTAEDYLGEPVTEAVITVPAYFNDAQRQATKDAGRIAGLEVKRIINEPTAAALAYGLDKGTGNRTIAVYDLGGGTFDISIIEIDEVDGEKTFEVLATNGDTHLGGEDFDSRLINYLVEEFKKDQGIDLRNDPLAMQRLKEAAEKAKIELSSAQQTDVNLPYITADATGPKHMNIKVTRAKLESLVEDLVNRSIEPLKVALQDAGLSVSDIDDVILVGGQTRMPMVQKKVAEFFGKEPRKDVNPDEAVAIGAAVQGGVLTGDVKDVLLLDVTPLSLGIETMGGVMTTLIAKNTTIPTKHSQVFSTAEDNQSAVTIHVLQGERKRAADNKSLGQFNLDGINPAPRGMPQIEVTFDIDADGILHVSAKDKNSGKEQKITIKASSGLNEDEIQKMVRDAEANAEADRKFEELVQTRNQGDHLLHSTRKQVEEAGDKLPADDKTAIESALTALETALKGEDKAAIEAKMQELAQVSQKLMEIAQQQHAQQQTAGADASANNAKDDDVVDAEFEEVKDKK

B1: KL peptide, FITC-TEKAKLVIKLLALGKTEQ-NH2 (KL decapeptide of ARF48 with flanking extensions) (peptide)
peptide: {FITC}-TEKAKLVIKLLALGKTEQ-NH2
notes: ARF48 is a 48-residue product of the +1 alternate reading frame of Arabidopsis thaliana cDNA At3G62370, not a natural protein), C-terminal extension KTEQ; The core decapeptide is not part of a natural protein: it is an alternate-reading-frame translation product; also called synthetic KL decapeptide; source: synthetic peptide (Peptide 2.0, Inc.)
With B1, the binding result is “binds”.

B2: NR peptide, FITC-TEKANRLLLTGKTEQ-NH2 (canonical DnaK peptide substrate NRLLLTG with flanking extensions) (peptide)
peptide: {FITC}-TEKANRLLLTGKTEQ-NH2
notes: N-terminal extension TEKA, canonical DnaK substrate heptapeptide NRLLLTG, C-terminal extension KTEQ; source: synthetic peptide (Peptide 2.0, Inc.)
Take B2: the binding result is on record as “binds”.
